Earlier results on one substance are cited in paper PMC2855346.

pKd: −log10 of the molar value.

This data set has as its target CCR2 (Homo sapiens) (UniProt P41597).
UniProt P41597, sequence (P41597 whole entry): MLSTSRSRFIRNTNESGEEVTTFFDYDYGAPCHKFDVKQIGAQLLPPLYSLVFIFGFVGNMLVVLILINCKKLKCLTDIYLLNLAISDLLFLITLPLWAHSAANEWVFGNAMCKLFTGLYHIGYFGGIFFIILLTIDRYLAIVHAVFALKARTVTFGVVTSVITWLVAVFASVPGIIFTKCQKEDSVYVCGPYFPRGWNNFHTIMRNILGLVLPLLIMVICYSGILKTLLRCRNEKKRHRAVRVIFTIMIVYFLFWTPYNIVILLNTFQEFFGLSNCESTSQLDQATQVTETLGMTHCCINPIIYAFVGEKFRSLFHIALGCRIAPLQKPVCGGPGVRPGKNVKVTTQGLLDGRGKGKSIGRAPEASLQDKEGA

Take CCL2 (from UniProt P13500): the pKd (as a rule, −log10 of the Kd, conventionally taken in molar units) was 8.60.
